Key:
[1] = target: murein peptide ligase (Mpl) from Psychrobacter arcticus 273-4 (Psychrobacter arcticus 273-4); test: SEC; elution of the same Superdex 200 run (refractive index trace) compared with the BioRad gel filtration standard (158, 44 and 17 kDa)
[2] = target: murein peptide ligase (Mpl) from Psychrobacter arcticus 273-4 (Psychrobacter arcticus 273-4); test: SEC-MALS; SEC/SLS: 1x30 cm Superdex 200 coupled with miniDAWN static light scattering and Optilab differential refractive index detectors; 20 mM Tris-HCl pH 8.0, 150 mM sodium chloride, 0.02% sodium azide; molecular weight by ASTRA 5.1.5
[3] = target: the molecule itself; test: SEC; 100 µl of 1.3 mg of EcMpl on Superdex 200 10/300 GL; 20 mM potassium phosphate pH 7.4, 0.15 mM NaCl, 0.01% 2-mercaptoethanol; 0.5 ml/min, detection at 280 nm
[4] = substrate: Nc1ncnc2c1ncn2[C@@H]1O[C@H](COP(=O)(O)OP(=O)(O)OP(=O)(O)O)[C@@H](O)[C@H]1O; test: purified protein; type: biochemical, Psychrobacter arcticus; details: 0.4 mM UDP-MurNAc, 0.25 mM L-Ala-γ-D-Glu-meso-A2pm, 5 mM MgCl2, pH 8.4, 30 min
[5] = substrate: CC(=O)N[C@H]1[C@@H](OP(=O)(O)OP(=O)(O)OC[C@H]2O[C@@H](n3ccc(=O)[nH]c3=O)[C@H](O)[C@@H]2O)O[C@H](CO)[C@@H](O)[C@@H]1O[C@H](C)C(=O)O; test: purified protein; type: biochemical, Psychrobacter arcticus; details: 5 mM ATP, 0.25 mM L-Ala-γ-D-Glu-meso-A2pm, 5 mM MgCl2, pH 8.4, 30 min, labelled compound

“murein peptide ligase (Mpl) from Psychrobacter arcticus 273-4 (enzyme)” was tested. Which stoichiometry N [1] did it give?
The stoichiometry N was 4.

What about the stoichiometry N [2] of the same molecule?
Its stoichiometry N is 2.09.

B1: Mpl from Escherichia coli (enzyme, UniProt P37773 1-457, looked up)
chain: MRIHILGICGTFMGGLAMLARQLGHEVTGSDANVYPPMSTLLEKQGIELIQGYDASQLEPQPDLVIIGNAMTRGNPCVEAVLEKNIPYMSGPQWLHDFVLRDRWVLAVAGTHGKTTTAGMATWILEQCGYKPGFVIGGVPGNFEVSAHLGESDFFVIEADEYDCAFFDKRSKFVHYCPRTLILNNLEFDHADIFDDLKAIQKQFHHLVRIVPGQGRIIWPENDINLKQTMAMGCWSEQELVGEQGHWQAKKLTTDASEWEVLLDGEKVGEVKWSLVGEHNMHNGLMAIAAARHVGVAPADAANALGSFINARRRLELRGEANGVTVYDDFAHHPTAILATLAALRGKVGGTARIIAVLEPRSNTMKMGICKDDLAPSLGRADEVFLLQPAHIPWQVAEVAEACVQPAHWSGDVDTLADMVVKTAQPGDHILVMSNGGFGGIHQKLLDGLAKKAEAAQ
notes: Mpl (murein peptide ligase, UDP-MurNAc:L-Ala-gamma-D-Glu-meso-A2pm ligase), Escherichia coli; also called EcMpl; E. coli ortholog
B1 was tested. Which “stoichiometry N” value [3] did it give?
Its value is 2.

B2: PaMpl (Psychrobacter arcticus 273-4) (protein)
chain: MHIHILGICGTFMGSLALLARALGHTVTGSDANIYPPMSTQLEQAGVTIEEGYLIAHLQPAPDLVVVGNAMKRGMDVIEYMLDTGLRYTSGPQFLSEQVLQSRHVIAVAGTHGKTTTTTMLAWILHYAGIDAGFLIGGVPLVNTTDTNLQQVFAHSSYLGTEKDDSDNSVNTGYFVIEADEYDSAFFDKRSKFVHYRPRTAILNNLEFDHADIFADLDAIQTQFHHMVRMIPSTGKIIMPAATISLEDTLAKGVWTPIWRTSVIDSTISSVRREDSPLENSQAENSSDWQAELISADGSQFTVSFNDNKEATALVNWSMSGLHNVNNALVAIAAAYNIGVSVKTACAALSAFAGIKRRMELIGDVNDILVFDDFAHHPTAITTTLDGAKKKLADRRLWAIIEPRSNTMKMGIHQDSLAQSATLADHTLWYEPTGLEWGLKEVIDNATIANPSIGSQQVLSSVDDIIKHICTHAKAGDAIVIMSNGGFEGIHQRLLTALGNIVAIL
notes: full length, 505 residues; N-terminal His6 tag (…) kept for kinetics; E. coli MLD2502 (delta mpl); 57,187 Da with tag; dimer in solution by light scattering
With B2 as the molecule, how does the Km [4] read?
Its Km is 110 ± 50 µM.

And the kcat [4]?
The kcat was 4.33 ± 0.333 s⁻¹.

And the kcat/Km [4]?
The kcat/Km was 40000 ± 18300 M⁻¹ s⁻¹.

What about the Km [5] of the same molecule?
The Km was 1000 ± 130 µM.

What about the kcat [5] of the same molecule?
The kcat was 4.33 ± 0.333 s⁻¹.

What about the kcat/Km [5] of the same molecule?
The kcat/Km was 4330 ± 650 M⁻¹ s⁻¹.
